According to article PMC3926522:

B1: anti-thrombin aptamer oligonucleotide (structured_DNA)
DNA: CCAACCCAACGGTTGGTGTGGTTGG
modifications: 5' amino
B2: non-thrombin (non-aptamer) oligonucleotide (ssDNA)
DNA: TATGAATTCAATCCGTCGAGCAGAGTT
modifications: 5' amino

Assays:
[1] = biological target: T1, thrombin (human, UniProt P00734;P00734 315-363;364-622); test: whispering gallery mode microsphere resonator
[2] = biological target: T1, thrombin; test: whispering gallery mode microsphere resonator; remark: listed apart in the source

Binder	Kd [1] [nM]	binding result [2]
B1	~1000	
B2		no binding
